Measurements reported in patent US20080050387A1, “Non-Androgen Dependent Roles for Androgen Receptor and Non-Androgen Related Inhibitors of Androgen Receptor” (priority 2003, published 2008).

Columns and labels:
AR [1] = test: AR transactivation reporter gene assay in H1299 cells with ARA67; type: cell-based, human; settings: H1299 cells, 600 ng construct, MMTV-luc
Experimental: H1299 and COS-1 cells were maintained in Dulbecco's modified Eagle's medium (DMEM) (Life Technologies, Inc.) supplemented with 10% heat inactivated fetal bovine serum (FBS). LNCap cells were maintained in RPMI 1640 supplemented with […]. All media contain 100 units penicillin, 100 μg/ml streptomycin and 2 mM L-glutamine. Cells were seeded to a density of 50-60% confluency for transfection. In transfections where H1299 and COS-1 cells were used, the calcium phosphate precipitation method was used as described (Pan H J, et al. 1999. Endocrine 11:321-327) unless otherwise noted. […] In other reporter gene assays, where ligand treatment was required, cell culture media were changed to DMEM containing 10% charcoal-dextran-stripped FBS (CD-FBS) 2 h before transfection. After 16-18 h transfection, cells were treated with medium containing either vehicle or ligands for another 20-24 h and then cells were harvested. With LNCap cells transfection, the cells were treated with fresh RPMI 1640 containing 10% CD-FBS before transfection with SuperFect performed according to the manufacturer's protocol (Qiagen). After transfection, cells were allowed to recover in fresh RPMI 1640 containing 10% CD-FBS for 8-12 h, and then treated with either vehicle or ligands for another 20-24 h before harvesting. Each experiment was repeated at least three times.
Target sequence in this assay (P10275 with tags, fused parts or gaps DEL79-80/DUP473-473): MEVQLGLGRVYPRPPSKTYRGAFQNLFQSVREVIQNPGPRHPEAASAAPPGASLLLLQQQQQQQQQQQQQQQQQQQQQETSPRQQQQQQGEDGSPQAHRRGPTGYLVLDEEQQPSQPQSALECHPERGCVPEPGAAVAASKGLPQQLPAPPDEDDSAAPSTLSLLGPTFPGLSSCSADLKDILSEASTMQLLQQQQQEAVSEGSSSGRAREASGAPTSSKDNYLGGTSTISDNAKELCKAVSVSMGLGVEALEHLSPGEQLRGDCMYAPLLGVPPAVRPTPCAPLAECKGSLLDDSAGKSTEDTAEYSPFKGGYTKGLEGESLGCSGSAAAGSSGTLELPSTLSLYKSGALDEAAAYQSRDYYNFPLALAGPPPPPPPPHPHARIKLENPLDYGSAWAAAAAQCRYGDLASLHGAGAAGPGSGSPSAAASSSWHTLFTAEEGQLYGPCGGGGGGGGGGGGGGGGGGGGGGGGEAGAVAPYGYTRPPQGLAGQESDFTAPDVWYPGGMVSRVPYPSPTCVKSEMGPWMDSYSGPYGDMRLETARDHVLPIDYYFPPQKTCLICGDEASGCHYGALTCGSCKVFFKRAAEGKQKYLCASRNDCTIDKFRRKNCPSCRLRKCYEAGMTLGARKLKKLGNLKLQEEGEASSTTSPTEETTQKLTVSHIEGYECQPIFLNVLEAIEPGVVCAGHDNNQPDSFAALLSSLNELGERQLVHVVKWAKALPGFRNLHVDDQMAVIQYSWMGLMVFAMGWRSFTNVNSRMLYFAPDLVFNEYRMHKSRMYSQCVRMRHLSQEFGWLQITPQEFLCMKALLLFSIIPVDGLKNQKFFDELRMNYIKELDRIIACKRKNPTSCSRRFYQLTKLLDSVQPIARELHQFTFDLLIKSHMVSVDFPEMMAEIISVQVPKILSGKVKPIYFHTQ

AR (ARN, ARDBD, ARLBD) = test: GST pull-down assay ARA67 / AR; type: binding, human
Experimental: GST-ARN, GST-ARA67 fusion proteins, and GST control protein were expressed in BL21 (DE3)pLysS bacteria strain (Stratagene) and purified with glutathione-Sepharose beads as instructed by the manufacturer (Amersham Pharmacia). In vitro [^35S]methionine-labeled AR, ARN, AR DBD, AR LBD and ARA67 proteins were generated using TNT-coupled Reticulocyte Lysate Systems (Promega). For in vitro interaction, mixtures of glutathione beads bound GST fusion proteins and 5 μl [^35S]methionine-labeled input proteins in 100 μl interaction buffer (20 mM Tris/pH8.0, 60 mM NaCl, 6 mM MgCl2, 1 mM EDTA, 0.05% Nonidet P-40, 1 mM DTT, 8% glycerol, 1 mM PMSF) were incubated in the presence or absence of 10 μM dihydrotestosterone (DHT) on a rotating disk at 4° C. for 2 h. After washing with NETN buffer (20 mM Tris/pH8.0, 100 mM NaCl, 6 mM MgCl2, 1 mM EDTA, 0.5% Nonidet P-40, 1 mM DTT, 8% glycerol, 1 mM PMSF) four times, the bound proteins were separated on 8-13% SDS-PAGE and visualized by autoradiography.

AR [2] = test: Mammalian two-hybrid assay hRad9 / AR in PC-3 cells; type: cell-based, human; settings: 10 nM DHT; for interaction between AR and full-length hRad9 / interaction between AR and the fragment of hRad9 (aa 327-391): FXXLF motif mutants
Experimental: (§1) PC-3, CWR22R, and LNCaP cell lines were maintained in […] supplemented with 10% fetal calf serum (FCS). Transient transfection for luciferase assays was carried out in 24-well plates (5×10^4 cells per well) using SuperFect as described previously (Lin, H. K., et al., Embo J 21:4037-48 (2002)). DNA mixtures in transfection assay were indicated in each figure. The total amount of transfected DNA was kept constant (1 μg) by adding the corresponding amounts of empty expression plasmids. After transfection, cells were cultured in […] supplemented with 5% charcoal-stripped FCS in the presence or absence of 10 nM dihydrotestosterone (DHT) for 18 h. Luciferase assays were performed as previously described (Yang, L., et al., J Biol Chem 278:16820-7 (2003)). In Western blotting assays, CWR22R or LNCaP cells were transfected by electroporation using 5×10^6 cells/0.4 ml of RPMI medium containing 2% FCS plus 9 μg of the indicated plasmids. 1 μg of EGFP expression vector was used for transfection efficiency. Electroporation was performed at 250 V and 950 μF using Gene Pulser II (Bio-Rad)
Target sequence in this assay (P10275 with tags, fused parts or gaps DEL79-80/DUP473-473): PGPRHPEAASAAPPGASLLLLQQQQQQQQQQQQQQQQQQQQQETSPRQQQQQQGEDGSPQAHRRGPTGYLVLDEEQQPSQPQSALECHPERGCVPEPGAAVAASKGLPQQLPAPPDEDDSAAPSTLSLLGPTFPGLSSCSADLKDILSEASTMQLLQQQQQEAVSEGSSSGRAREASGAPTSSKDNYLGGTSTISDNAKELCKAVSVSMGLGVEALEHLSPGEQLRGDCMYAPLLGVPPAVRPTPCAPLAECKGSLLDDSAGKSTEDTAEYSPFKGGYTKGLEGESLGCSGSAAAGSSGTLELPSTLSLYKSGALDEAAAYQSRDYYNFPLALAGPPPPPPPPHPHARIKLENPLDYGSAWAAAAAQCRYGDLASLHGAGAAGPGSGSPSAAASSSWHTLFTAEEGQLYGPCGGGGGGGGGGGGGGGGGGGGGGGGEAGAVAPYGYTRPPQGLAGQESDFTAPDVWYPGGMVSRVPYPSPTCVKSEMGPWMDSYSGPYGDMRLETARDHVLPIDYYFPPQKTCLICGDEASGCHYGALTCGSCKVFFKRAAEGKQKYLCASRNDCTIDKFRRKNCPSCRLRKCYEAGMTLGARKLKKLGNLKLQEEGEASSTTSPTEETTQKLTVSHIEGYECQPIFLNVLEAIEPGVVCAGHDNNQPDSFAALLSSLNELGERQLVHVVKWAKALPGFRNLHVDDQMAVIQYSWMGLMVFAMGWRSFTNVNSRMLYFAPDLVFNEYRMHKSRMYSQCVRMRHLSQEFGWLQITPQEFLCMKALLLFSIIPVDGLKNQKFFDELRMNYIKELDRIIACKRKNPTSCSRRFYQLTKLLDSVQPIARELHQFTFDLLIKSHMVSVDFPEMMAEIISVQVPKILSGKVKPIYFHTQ

AR [3] = test: AR transactivation MMTV-LUC assay in PC-3 cells with hRad9; type: cell-based, human; settings: MMTV-LUC, 10 nM DHT
Experimental: as §1

AR (DBD-LBD, LBD, DBD) = test: Yeast two-hybrid / liquid β-gal assay hRad9 fragment / AR domains; type: cell-based, human
Source text: The DBD and LBD of AR cDNA was amplified and was cloned into the NdeI and BamHI site of pGBKT7 (Clontech). Yeast strain AH109 was transformed with the vector encoding GAL4 DBD-AR-DBD-LBD fusion and was mated with yeast strain Y187 pretransformed with the human ovary […] cDNA library (Clontech). The yeast clones were selected following the manufacturer's instruction. The positive clones were confirmed by clone lift assay and purified plasmids were retransformed into yeast strain AH109 with bait plasmids. The interaction specificity was further confirmed by liquid […] assay.

Molecule | suppression of AR transactivation by ARA67 fragments (AR [1]) | interaction with ARN (AR (ARN, ARDBD, ARLBD)) | further results
ARA67281-550: truncated ARA67 fragment, residues 281-550 (protein) GSKHPKYSDTLLDYGFYLLNVDNICQSVAIYQAALDIRQSVFGGKNIHVATAHEDLAYSSYVHQYSSGKFDNALFHAERAIGIITHILPEDHLLLASSKRVKALILEEIAIDCHNKETEQRLLQEAHDLHLSSLQLAKKAFGEFNVQTAKHYGNLGRLYQSMRKFKEAEEMHIKAIQIKEQLLGQEDYEVALSVGHLASLYNYDMNQYENAEKLYLRSIAIGKKLFGEGYSGLEYDYRGLIKLYNSIGNYEKVFEYHNVLSNWNRLRDRQ | could also suppress AR transactivation | slightly stronger interaction | –
AXXLF: hRad9 mutant, F361 converted to Ala (protein, UniProt Q99638 1-391, looked up, variant F361A) Cell cycle checkpoint control …: MKCLVTGGNVKVLGKAVHSLSRIGDELYLEPLEDGLSLRTVNSSRSAYACFLFAPLFFQQYQAATPGQDLLRCKILMKSFLSVFRSLAMLEKTVEKCCISLNGRSSRLVVQLHCKFGVRKTHNLSFQDCESLQAVFDPASCPHMLRAPARVLGEAVLPFSPALAEVTLGIGRGRRVILRSYHEEEADSTAKAMVTEMCLGEEDFQQLQAQEGVAITFCLKEFRGLLSFAESANLNLSIHFDAPGRPAIFTIKDSLLDGHFVLATLSDTDSHSQDLGSPERHQPVPQLQAHSTPHPDDFANDDIDSYMIAMETTIGNEGSRVLPSISLSPGPQPPKSPGPHSEEEDEAEPSTVPGTPPPKKARSLFFGSILAPVRSPQGPSPVLAEDSEGEG | – | – | interaction between AR and full-length hRad9 (AR [2]): reduced; interaction between AR and the fragment of hRad9 (aa 327-391) (AR [2]): decreased dramatically
FXXAA: hRad9 mutant, L364 and F365 converted to Ala (protein, UniProt Q99638 1-391, looked up, variant L364A F365A) Cell cycle checkpoint control …: MKCLVTGGNVKVLGKAVHSLSRIGDELYLEPLEDGLSLRTVNSSRSAYACFLFAPLFFQQYQAATPGQDLLRCKILMKSFLSVFRSLAMLEKTVEKCCISLNGRSSRLVVQLHCKFGVRKTHNLSFQDCESLQAVFDPASCPHMLRAPARVLGEAVLPFSPALAEVTLGIGRGRRVILRSYHEEEADSTAKAMVTEMCLGEEDFQQLQAQEGVAITFCLKEFRGLLSFAESANLNLSIHFDAPGRPAIFTIKDSLLDGHFVLATLSDTDSHSQDLGSPERHQPVPQLQAHSTPHPDDFANDDIDSYMIAMETTIGNEGSRVLPSISLSPGPQPPKSPGPHSEEEDEAEPSTVPGTPPPKKFRSAAFGSILAPVRSPQGPSPVLAEDSEGEG | – | – | interaction between AR and full-length hRad9 (AR [2]): reduced; interaction between AR and the fragment of hRad9 (aa 327-391) (AR [2]): decreased dramatically; transcriptional activity of AR (AR [3]): only marginal effect
ARA678-140: truncated ARA67 fragment, residues 8-140 (protein) WIPETLYNTAISAVVDNYIRSRRDIRSLPENIQFDVYYKLYQQGRLCQLGSEFCELEVFAKVLRALDKRHLLHHCFQALMDHGVKVASVLAYSFSRRCSYIAESDAAVKEKAIQVGFVLGGFLSDAGWYSDAE | – | slightly stronger interaction | –
GST-ARA67170-338: GST-fused ARA67 fragment 170-338, which contains the LXXLL motif (protein) LHVRNGNCKYHLGEETFKLAQTYMDKLSKHGQQANKAALYGELCALLFAKSHYDEAYKWCIEAMKEITAGLPVKVVVDVLRQASKACVVKREFKKAEQLIKHAVYLARDHFGSKHPKYSDTLLDYGFYLLNVDNICQSVAIYQAALDIRQSVFGGKNIHVATAHEDLAY | – | very weak interaction | interaction with AR LBD (AR (ARN, ARDBD, ARLBD)): no interaction
ARA671-280: N-terminal region of ARA67, residues 1-280 (protein) MAAVELEWIPETLYNTAISAVVDNYIRSRRDIRSLPENIQFDVYYKLYQQGRLCQLGSEFCELEVFAKVLRALDKRHLLHHCFQALMDHGVKVASVLAYSFSRRCSYIAESDAAVKEKAIQVGFVLGGFLSDAGWYSDAEKVFLSCLQLCTLHDEMLHWFRAVECCVRLLHVRNGNCKYHLGEETFKLAQTYMDKLSKHGQQANKAALYGELCALLFAKSHYDEAYKWCIEAMKEITAGLPVKVVVDVLRQASKACVVKREFKKAEQLIKHAVYLARDHF | better suppressor than ARA67281-550 and ARA67281-585 | relatively weak | –
f-hRad9: fragment aa 327-391 of hRad9 containing the FXXLF motif (protein, UniProt Q99638 327-391, looked up, fragment) LSPGPQPPKSPGPHSEEEDEAEPSTVPGTPPPKKFRSLFFGSILAPVRSPQGPSPVLAEDSEGEG | – | – | interaction with AR (AR [2]): androgen-dependent interactions were detected; interaction with AR LBD (AR (DBD-LBD, LBD, DBD); AH109 yeast cells, presence of androgen): interacted; liquid β-gal assay induction with the AR-DBD-LBD (AR (DBD-LBD, LBD, DBD); yeast, presence of DHT): strong induction
ARA671-550: ARA67 lacking the PEST sequence (protein, UniProt Q92624 1-550, looked up, fragment) MAAVELEWIPETLYNTAISAVVDNYIRSRRDIRSLPENIQFDVYYKLYQQGRLCQLGSEFCELEVFAKVLRALDKRHLLHHCFQALMDHGVKVASVLAYSFSRRCSYIAESDAAVKEKAIQVGFVLGGFLSDAGWYSDAEKVFLSCLQLCTLHDEMLHWFRAVECCVRLLHVRNGNCKYHLGEETFKLAQTYMDKLSKHGQQANKAALYGELCALLFAKSHYDEAYKWCIEAMKEITAGLPVKVVVDVLRQASKACVVKREFKKAEQLIKHAVYLARDHFGSKHPKYSDTLLDYGFYLLNVDNICQSVAIYQAALDIRQSVFGGKNIHVATAHEDLAYSSYVHQYSSGKFDNALFHAERAIGIITHILPEDHLLLASSKRVKALILEEIAIDCHNKETEQRLLQEAHDLHLSSLQLAKKAFGEFNVQTAKHYGNLGRLYQSMRKFKEAEEMHIKAIQIKEQLLGQEDYEVALSVGHLASLYNYDMNQYENAEKLYLRSIAIGKKLFGEGYSGLEYDYRGLIKLYNSIGNYEKVFEYHNVLSNWNRLRDRQ | didn't show a stronger suppression effect than full length ARA67 | – | –
ARA67281-585: C-terminal region of ARA67, residues 281-585 (protein) GSKHPKYSDTLLDYGFYLLNVDNICQSVAIYQAALDIRQSVFGGKNIHVATAHEDLAYSSYVHQYSSGKFDNALFHAERAIGIITHILPEDHLLLASSKRVKALILEEIAIDCHNKETEQRLLQEAHDLHLSSLQLAKKAFGEFNVQTAKHYGNLGRLYQSMRKFKEAEEMHIKAIQIKEQLLGQEDYEVALSVGHLASLYNYDMNQYENAEKLYLRSIAIGKKLFGEGYSGLEYDYRGLIKLYNSIGNYEKVFEYHNVLSNWNRLRDRQYSVTDALEDVSTSPQSTEEVVQSFLISQNVEGPSC | could also suppress AR transactivation | relatively weak | –
